Consider one molecule from patent US20050283857A1 (UNIVERSITY OF GEORGIA RESEARCH FOUNDATION, published 2005).

One may read the Kd as the concentration at which binding is half-saturated. The low end stands for a tighter complex, the high end for a looser complex.

The target in this test is Cry1Ab toxin (Bacillus thuringiensis). Briefly: 125I-Cry1Ab toxin binding saturation assay on S2 cells; dissociation constant (Kcom).

B1: Cad7-12 truncated Bt-R1a cadherin expressed in S2 cells (receptor)
chain: GTLEQNFRVREMSAGGLVVGSVRADDIDGPLYNQVRYTIFPREDTDKDLIMIDFLTGQISVNTSGAIDADTPPRFHLYYTVVASDRCSTEDPADCPPDPTYWETEGNITIHITDTNNKVPQAETTKFDTVVYIYENATHLDEVVTLIASDLDRDEIYHTVSYVINYAVNPRLMNFFSVNRETGLVYVDYETQGSGEVLDRDGDEPTHRIFFNLIDNFMGEGEGNRNQNDTEVLVILLDVNDNAPELPPPSELSWTISENLKQGVRLEPHIFAPDRDEPDTDNSRVGYEILNLSTERDIEVPELFVMIQIANVTGELETAMDLKGYWGTYAIHIRAFDHGIPQMSMNETYELIIHPFNYYAPEFVFPTNDAVIRLARERAVINGVLATVNGEFLERISATDPDGLHAGVVTFQVVGDEESQRYFQVVNDGANLGSLRLLQAVPEEIREFRITIRATDQGTDPGPLSTDMTFRVVFVPTQGEPRFASSEHAVAFIEKSAGMEESHQLPLAQDIKNHLCEDDCHSIYYRIIDGNSEGHFGLDPVRNRLFLKKELIREQSASHTLQVAASNSPDGGIPLPASILTVTVTVREADPRPVFMRELYTAGISTADSIGRELLRLHATQSEGAAITYAIDYDTMVVDPSLEAVRQSAFVLNAQTGVLTLNIQPTATMHGLFKFEVTATDTAGAQDRTDVTVYVVSSQNRVYFVFVNTLQQVEDNRDFIADTFSAGFNMTCNIDQVVPANDPVTGVALEHSTQMRGHFIRDNVPVLADEIEQIRSDLVLLSSIQTTLAARSLVLQDLLTNSSPDSAPDSSLTVYVLASLSAVLGFMCLVLLLTFIIRTRALNRRLEALSMTKYGSLDSGLNRAGIAAPGTNKHTVEGSNPIFNEAIKTPDLDAISEGSNDSDLIGIEDLPHFGNVFMDPEVNEKANGYPEVANHNNNFAFNPTPFSPEFVNGQFRKI
In turn, B1 yielded a Kd of 2.05 nM.
